Source: the domain aggregation screens of Martell et al. (2025)

Experiment: soluble fraction after stress (log2 fold change); higher = more stays soluble; pooled small domains, quantitative proteomics
Details: stress: 75 degC
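Also: 20 min heating vs room temperature control held 20 min.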

Sequence: HMSKTQYTFREVGSQFELHAPSTNHKIMVDANHPKYGWLSSQEAGRVINVYESGKMTSSQDYYGLYKQS
- soluble fraction (log2): -0.092

Sequence: HMSLANTSVKEMLNDLVKNEEPSKPLSDEALVKIFKEKGVKIARRTVAKYRAELNILPSHLRRT
- soluble fraction (log2): -1.56

Sequence: HMSLAVFLQGLLEEKQLKKADVIRRTGMEPTYGYHIFDGHKKHPARSKVLLLALAMGLTVKEAQHLLYYAG
- soluble fraction (log2): -0.423

Sequence: HMSLDAAAVASKLIKRLSKSPGRRFALDDLAVDVGLPHEQGRPLVRSALELLVRTQQAVEGPPNVFRLFF
- soluble fraction (log2): -2.51

Sequence: HMSLEDMILSLSSRIRRGESLHFRELLVAIETKSGMVTIFMAVLELLKQQVMEMRYEDDDIIFT
- soluble fraction (log2): -1.04

Sequence: HMSLEEIPLEERLGPGGLDPVAVYDSLPREMRDAFDSGSVSALREFVNALPAEDAARHMKAMVDSGLWVPT
- soluble fraction (log2): 0.148

Sequence: HMSLETRRYQLPRTDAQTASGLLRSLSGLPGVREVNLSGEGVAYLKVDSKGFDEQNVIKLLAGE
- soluble fraction (log2): 0.47

Sequence: HMSLHSITIPQEFIGAVIGPGGKVIQEIQKQTGTTITITEKDNKGYVDIFGEDKGALDSALARIKEIVAIP
- soluble fraction (log2): 0.289

Sequence: HMSLIDYLNELMNEKNITVAQVAKNSGIGEYVYKIFNGERNAKRDTLVAISFGMHLNFEETQLLLRIA
- soluble fraction (log2): -1.19

Sequence: HMSLPALALRQADSLAFKQVIYHDRVVPFNTLARDFVLKLTGKPSYGGMTPEQVVGGWLLRPEVWQNEPM
- soluble fraction (log2): 0.192

Sequence: HMSLPAYIKISEVIARRINAGQILAGDRLPNERTMAVEFGVAVGTLRKALYHLQVRGLVTRKHGSGNYINK
- soluble fraction (log2): -0.221

Sequence: HMSLPKIVVPTDVTVSQLAKYLEVDAISIIKQLFGMGVVASLNQRLEDEIIQLIGNEFGKEIIFSE
- soluble fraction (log2): 0.162

Sequence: HMSLPQSKDAVITILRTLPQLDTRAPEVYKLLGPHALDIILEDPEQVAKKINHVGVATAKLWQQALLGFK
- soluble fraction (log2): -0.751

Sequence: HMSLQDYYQVLGVFYNAGDKEIKRRWKELINQYHPDLAQAKGASPEEIENYTLKMAEINNAYEQIMKSRKA
- soluble fraction (log2): -0.396

Sequence: HMSLSASELDQLRMMTKVSHMYHTRGMVQIDIARSLGLSQARVSRLLSAAEDANIVRTVVVA
- soluble fraction (log2): -0.392

Sequence: HMSLTAQVFTDRGKVLLSENKFTEAIDQFTKALAMDKVYIEALNRRIEAYQHLGLTELAAKDEALLGTL
- soluble fraction (log2): -1.16

Sequence: HMSLTPSQDANRSAILDAARDLFARYGFKKTTMEDIAMALRKGKSSLYYYFKNKEDIFQAVIDS
- soluble fraction (log2): -1.25

Sequence: HMSMDAVSLANRLLRFFQKRPGRKFTAADLAFETGMNERTGKSLVTSALEILSRTNQIEADGDGFRLKM
- soluble fraction (log2): 0.0354

Sequence: HMSMEIQEIIRQLREKNDWSQEDMAERVGLSKNGYAKIERGETNLNLERLEQIANLFDLSVIDLIEMS
- soluble fraction (log2): -0.764

Sequence: HMSMEKNWVPSEDVIEILTRAGMNENFIRELIPEFIIYWSERKDVLISYDSKFIEHARLKWAQHNAE
- soluble fraction (log2): 0.454

Sequence: HMSMFTPAQVAQTLTVPPSTLRRWAKRFAPFLSPQSGKKRTYTVADLDTFQRIKELSAQGYTFAQIDQAL
- soluble fraction (log2): -1.32

Sequence: HMSMLSQERQSLILDIIKEQGSVTVTRLTEILQSSESTVRRDLSYLASKGKINKVHGGATALG
- soluble fraction (log2): -0.39

Sequence: HMSMNGNMIHATVIWKGRYFLVKMFFPQLTKPKRAEVQAQIEKAYPGSRVASYHITDYKPGEQFLHV
- soluble fraction (log2): -1.84

Sequence: HMSMPEVLSDRELEIFRMIGTGMSTGDIAKKLNISVNTIESHRKKIKDKLGIQKGSELVKAAVQWVSTQQ
- soluble fraction (log2): -0.741

Sequence: HMSMSVLFSELDQKDAGVIVEKLKERKIPYELQSGGSAIMVPANVLHETRLQLAAEGLPQSS
- soluble fraction (log2): -0.0383

Sequence: HMSMTVHGALRLLQLPTIADRPYTLKEIREAYREQAQNHHPDAGGSADAMRRLNEAYQFLKERYRQA
- soluble fraction (log2): -0.449

Sequence: HMSNEKVVKFAQELLVDEERSAISPALISAKIDQVLMFKPAWNEGLDRDAVVNELVRRFSIW
- soluble fraction (log2): -1.24

Sequence: HMSNGFFELKTSQQDELIDLIDSHTNFVRTKIEGELITAFLKLPMDAEEFNKLLFTNGIILSHLVKRK
- soluble fraction (log2): -0.713

Sequence: HMSNIIGNTAYSAIPDKQYFRLKSETAEKVANYLTENNIPFSGRINGDKTTLTIGQKNVDDYKAAVATVTG
- soluble fraction (log2): 0.0528

Sequence: HMSNIVNYEVYVYQNDAWDLLARYPSEKRAEAIEYAKSTEFSLNRPTKVIRETYDLDTQKFQEALIYLSE
- soluble fraction (log2): -0.743

Sequence: HMSNLNHSFQYKKNIGRKISLTYLGRDNESISKIYELIDSNDSGILVKNKNVEIFIHYEKIVSAKIKVS
- soluble fraction (log2): -1.78

Sequence: HMSNLTDLVSAKEAEVYLHFLESGSTAGMTEAELRAVRKIEELIQSNKIDYNGILRIRNETVK
- soluble fraction (log2): 0.0216

Sequence: HMSNNLAYSQFLDRVKNKEIRKVEIRGQSIVGYTSNNETFKTYAPLNDPKMYDELLTNDVQVQVDPP
- soluble fraction (log2): -0.0765

Sequence: HMSNQLAVPDVTNMKANAAADRLRQQGLRVELKTESSNTVPRGMAIRTDPAASTMVARGGRVTLIISSGKG
- soluble fraction (log2): -0.248

Sequence: HMSNSGFVKNNGKTEFYDASGRQAKSSWINISGKWYYFDLNGTMVTGWQRISNKWYYFLEDGSK
- soluble fraction (log2): -0.0724

Sequence: HMSNSMISKDKAMSIALAKVSGATSSNIYIELEKDDGRYTYEGEINFNNKEYEFEIDAYTGNILKWEVDSI
- soluble fraction (log2): -0.806

Sequence: HMSNTPHSREVLLEMDAVRRLLAVGEEKGEVDRADLQGAFEEAELGRGDLDGVLSILREYDVPLAR
- soluble fraction (log2): 0.0604

Sequence: HMSNVIYFNYNDYKFLFMGDAGVDKETDILEKYTLSNIDFLKVGHHGSDTSSNKGFIDSIQPKYSLIS
- soluble fraction (log2): -1.53

Sequence: HMSNWTILIIQGSAHLIDLDSKITEIDGFGSFPTKILQDYNLNEEFEIFDTNVKMVNSVQSDLQSN
- soluble fraction (log2): -2.48

Sequence: HMSNYIVELSSSEKIDDIDNNNNLINSFFSKSDSQWEYKLVFKNKNEMDVFVKKISTNNKIISYKTSS
- soluble fraction (log2): -1.17

Sequence: HMSPAETGIYHILVENGKPNRHGLDATNKNENWLRQFLITQNTRLEDVFLLLADDGGGIRFFKSQ
- soluble fraction (log2): -1.26

Sequence: HMSPAPVSVDHLAFPTRDLEATDHFYSKVVGATLVHAESGYSPSWKSDYLLITYALPDGTRLSFFDWP
- soluble fraction (log2): 0.105

Sequence: HMSPDTREAILAAARTAFARDGYQTSLRGIARDAGVDPALVHHYFPDRATLFAKAVIESTAG
- soluble fraction (log2): -0.0532

Sequence: HMSPFAHHLHELRMRHGIRQNELAELIGYDQTYISALEVGLKGPPTPEFVDKLVEGLALSRTEEAALRSAA
- soluble fraction (log2): -0.483

Sequence: HMSPFYALDEVDSFLDGVNVERLAALIARQAEQAQFLVVSHRRPMIGASTRTIGVTQARGAHTQVVGLP
- soluble fraction (log2): -0.312

Sequence: HMSPGAKIEVTGNTVNLRAGPGTNYDTRGQVKKGEQLPLLGEQGGWYRVQTSRGVAYLAGWLARVLT
- soluble fraction (log2): -1.43

Sequence: HMSPLDSHLGRRIALRRQQLNTSAADLEKAISMVPGSVARFEAGRQSLNATQLFTLSRALDVPVLYFFEG
- soluble fraction (log2): -0.705

Sequence: HMSPREDQQSRKQHILEAAAVLFAERGYYKTTTADVARAVGVTQPYVFHFFKSKEELYLAVL
- soluble fraction (log2): 0.163

Sequence: HMSPSDLSAEAQKVYALLDGRELSFDTLVEESGFDTGSLLAILMRLEMKMLVEHGADQVYRRSG
- soluble fraction (log2): -1.51

Sequence: HMSPVKAPLPGVVLDIHVSVGQEVKASDTVVTLEAMKMENAIKAGVDGKVASISVGKGDSVLEGAVLLTI
- soluble fraction (log2): -0.0893

Sequence: HMSQAVTMLKAGRLLANSKGTGAAVRDLEPGMLLYPTGQKDGTMWEVEDEMGNKGWVNSTSMQLA
- soluble fraction (log2): 0.271

Sequence: HMSQDEKITNYIYEGNKNTQTEAFVEAEKSYRKALSLSPEKPEALYNLGNTHFLDKQYDEASQRFF
- soluble fraction (log2): 0.0479

Sequence: HMSQDINVFIKTNPENATIIWDGESKGTNGIFKSNAGAHRLRIEMQGYESIDQDIQVSDKQFSFEYNLKKE
- soluble fraction (log2): 0.138

Sequence: HMSQIANLLLSKNIKVNNQNIIYYETVLKYLPNNEKKEFFINAMKNNIYFTEEEIKNFGNIFN
- soluble fraction (log2): -2.74

Sequence: HMSQIQIKLDQAIMQLPEKQRFVFMLRYFEELPYEKIAQITETSIGGAKANFHQALKKMQEIIQ
- soluble fraction (log2): -2.96
